Patent publication CN109776677A (SHANGHAI PHARMEXPLORER COMPANY LTD, dated 2019)

T1: 鼠IL-13 (小鼠 (mouse), UniProt P20109 19-131, limits assumed)
T1 construct: Bought protein; also called 小鼠IL-13; 鼠IL-13变体
T1 sequence (looked up): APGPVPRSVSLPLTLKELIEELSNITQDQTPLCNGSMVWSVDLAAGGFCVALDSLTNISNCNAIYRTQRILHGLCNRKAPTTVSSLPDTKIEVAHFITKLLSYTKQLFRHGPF

B1: c29D9H8 (antibody, V domains shown)
VH: QVQLQQSGAELVRPGASVTLSCKASGYTFTDYEMHWVKQTPVHGLEWIGGIDPETGGTASNQKFKGKAILTADKSSSTAYMELRSLTSEDSAVYYCTSGDYFGGGPFAYWGQGTLVTVSA
VL: DIKMTQSPSSMYASLGERVTITCKASQDINSYLSWFQQKPGKSPKTLIYRANRLVDGVPSRFSGSGSGQDYSLTISSLDYEDMGIYYCLQYDEFPYTFGGGTKLEIK
B2: 35E2C3 (antibody, V domains shown)
VH: EVQLQESGPGLAKPSQTLSLTCSVTGYSITSDYWNWIRKFPGNKLEYMGYISYNGNTYYNPSLKSQISITRDTSKNQLYLQLKSATTEDTATYYCARLAKWTWYFDIWGTGTTVTVSS
VL: DIQMNQSPSSLSASLGDTITITCHASQNINVWLSWYQQKPGSLPKLLIYKASDLHTGVPSRFSGSGSGTGFTLTISSLQPEDIATYYCQQGQSYPYTFGGGTKLEIK
notes: also called 先导抗体; IL-13先导抗体

What was measured:
[1] = target: 免疫原A (his标签重组人IL-13蛋白) (human) (UniProt P35225); assay: SPR (Biacore), steps as Example 9
[2] = target: 免疫原A (his标签重组人IL-13蛋白) (human) (UniProt P35225); assay: SPR (Biacore), sentence on the group of 表27
[3] = target: 免疫原A (his标签重组人IL-13蛋白) (human) (UniProt P35225); assay: SPR (Biacore), antibody captured on anti-human Fc CM5 chip, immunogen A as analyte, 1:1 global fit
鼠IL-13 = target: T1, 鼠IL-13; assay: ELISA, IL-13 at 0.5 μg/mL on streptavidin plate, serially diluted antibody, HRP second antibody

Binder | Kd [1] [nM] | koff [1] [s⁻¹] | kon [1] [M⁻¹ s⁻¹] | Kd [2] [nM] | Kd [3] [nM] | koff [3] [s⁻¹] | kon [3] [M⁻¹ s⁻¹] | binding result (鼠IL-13)
B1 | 0.0247 | 0.000962 | 3.9e+07 | < 90 | 0.0324 | 0.000813 | 2.51e+07 | –
B2 | 0.86 | 0.000248 | 289000 | < 90 | 0.863 | 0.00026 | 300000 | no binding
